# Measured values reported in publication PMC11574045, “A cofactor-induced repressive type of transcription factor condensation can be induced by synthetic peptides to suppress tumorigenesis” (The EMBO Journal, 2024).
# Test system: HEK293FT cells transfected with TF library
# Assay: Screening of TF condensates based on fluorescent puncta
# Format: cell-based
# Details: Figure 1B numerical data; TF library screen, one value per transcriptional factor
# Outline: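 HEK293FT, PEI transfection of TF library, 60 h; ±glucose 12 h; 4% PFA fix, 0.05% Triton X-100 permeabilization, 5% BSA block; anti-Flag/anti-GAL4 overnight at 4 °C, Alexa 488 secondary 1 h; high-content imaging, 50 fields/well.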
row,Molecule,Z score of condensed fraction
1,"LEF1 (protein, UniProt Q9UJU2 1-399, looked up) Lymphoid enhancer-binding …: MPQLSGGGGGGGGDPELCATDEMIPFKDEGDPQKEKIFAEISHPEEEGDLADIKSSLVNESEIIPASNGHEVARQAQTSQEPYHDKAREHPDDGKHPDGGLYNKGPSYSSYSGYIMMPNMNNDPYMSNGSLSPPIPRTSNKVPVVQPSHAVHPLTPLITYSDEHFSPGSHPSHIPSDVNSKQGMSRHPPAPDIPTFYPLSPGGVGQITPPLGWQGQPVYPITGGFRQPYPSSLSVDTSMSRFSHHMIPGPPGPHTTGIPHPAIVTPQVKQEHPHTDSDLMHVKPQHEQRKEQEPKRPHIKKPLNAFMLYMKEMRANVVAECTLKESAAINQILGRRWHALSREEQAKYYELARKERQLHMQLYPGWSARDNYGKKKKRKREKLQESASGTGPRMTAAYI",0.2503
2,"LITAF (protein, UniProt Q99732 1-161, looked up) Lipopolysaccharide-induced …: MSVPGPYQAATGPSSAPSAPPSYEETVAVNSYYPTPPAPMPGPTTGLVTGPDGKGMNPPSYYTQPAPIPNNNPITVQTVYVQHPITFLDRPIQMCCPSCNKMIVSQLSYNAGALTWLSCGSLCLLGCIAGCCFIPFCVDALQDVDHYCPNCRALLGTYKRL",0.004705
3,"LIN28B (protein, UniProt Q6ZN17 1-250, looked up) Protein lin-28 homolog B: MAEGGASKGGGEEPGKLPEPAEEESQVLRGTGHCKWFNVRMGFGFISMINREGSPLDIPVDVFVHQSKLFMEGFRSLKEGEPVEFTFKKSSKGLESIRVTGPGGSPCLGSERRPKGKTLQKRKPKGDRCYNCGGLDHHAKECSLPPQPKKCHYCQSIMHMVANCPHKNVAQPPASSQGRQEAESQPCTSTLPREVGGGHGCTSPPFPQEARAEISERSGRSPQEASSTKSSIAPEEQSKKGPSVQKRKKT",-0.9223
4,"LHX3 (protein, UniProt Q9UBR4 1-397, looked up) LIM/homeobox protein Lhx3: MLLETGLERDRARPGAAAVCTLGGTREIPLCAGCDQHILDRFILKALDRHWHSKCLKCSDCHTPLAERCFSRGESVYCKDDFFKRFGTKCAACQLGIPPTQVVRRAQDFVYHLHCFACVVCKRQLATGDEFYLMEDSRLVCKADYETAKQREAEATAKRPRTTITAKQLETLKSAYNTSPKPARHVREQLSSETGLDMRVVQVWFQNRRAKEKRLKKDAGRQRWGQYFRNMKRSRGGSKSDKDSVQEGQDSDAEVSFPDEPSLAEMGPANGLYGSLGEPTQALGRPSGALGNFSLEHGGLAGPEQYRELRPGSPYGVPPSPAAPQSLPGPQPLLSSLVYPDTSLGLVPSGAPGGPPPMRVLAGNGPSSDLSTGSSGGYPDFPASPASWLDEVDHAQF",-0.2379
5,"LHX2 (protein, UniProt P50458 1-406, looked up) LIM/homeobox protein Lhx2: MLFHSLSGPEVHGVIDEMDRRAKSEAPAISSAIDRGDTETTMPSISSDRAALCAGCGGKISDRYYLLAVDKQWHMRCLKCCECKLNLESELTCFSKDGSIYCKEDYYRRFSVQRCARCHLGISASEMVMRARDLVYHLNCFTCTTCNKMLTTGDHFGMKDSLVYCRLHFEALLQGEYPAHFNHADVAAAAAAAAAAKSAGLGAAGANPLGLPYYNGVGTVQKGRPRKRKSPGPGADLAAYNAALSCNENDAEHLDRDQPYPSSQKTKRMRTSFKHHQLRTMKSYFAINHNPDAKDLKQLAQKTGLTKRVLQVWFQNARAKFRRNLLRQENTGVDKSTDAALQTGTPSGPASELSNASLSPSSTPTTLTDLTSPTLPTVTSVLTSVPGNLEGHEPHSPSQTTLTNLF",0.8007
6,"LIN28 (protein, UniProt Q9H9Z2 2-209, looked up) Protein lin-28 homolog A: GSVSNQQFAGGCAKAAEEAPEEAPEDAARAADEPQLLHGAGICKWFNVRMGFGFLSMTARAGVALDPPVDVFVHQSKLHMEGFRSLKEGEAVEFTFKKSAKGLESIRVTGPGGVFCIGSERRPKGKSMQKRRSKGDRCYNCGGLDHHAKECKLPPQPKKCHFCQSISHMVASCPLKAQQGPSAQGKPTYFREEEEEIHSPTLLPEAQN",-0.1683
